Assay results as given in patent publication CN116574187A (ZHEJIANG SHIMAI PHARMACEUTICAL CO LTD, dated 2023).

Assays:
[1] = molecular target: 细胞表面表达的GUCY2C (HT55, SW948, LS174T-GUCY2C, HT1080-GUCY2C细胞) (human, UniProt P25092 24-1073); experiment: cell-based or functional assay
[2] = molecular target: T1, 人GUCY2C蛋白(His标签) (human, UniProt P25092 24-430); experiment: ELISA, coated human GUCY2C protein, anti-Fc HRP detection
T1 construct: Bought from ACRO; also called 重组人GUCY2C; human GUCY2C protein (His tag); not shown: His tag
T1 sequence (P25092 24-430 limits assumed): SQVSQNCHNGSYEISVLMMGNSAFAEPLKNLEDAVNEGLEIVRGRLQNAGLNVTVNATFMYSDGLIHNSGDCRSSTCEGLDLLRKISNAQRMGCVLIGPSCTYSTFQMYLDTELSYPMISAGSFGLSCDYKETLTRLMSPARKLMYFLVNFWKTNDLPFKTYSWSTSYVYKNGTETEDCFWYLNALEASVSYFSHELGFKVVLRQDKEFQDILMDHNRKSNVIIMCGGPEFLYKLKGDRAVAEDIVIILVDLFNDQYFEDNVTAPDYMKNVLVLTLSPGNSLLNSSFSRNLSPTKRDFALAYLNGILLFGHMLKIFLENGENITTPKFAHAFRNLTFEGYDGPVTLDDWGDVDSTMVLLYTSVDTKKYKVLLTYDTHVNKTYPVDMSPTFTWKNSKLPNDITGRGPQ

[3] = molecular target: CD3 on TCR/CD3效应细胞 (Jurkat-NFAT-CD3) (human); experiment: cell-based or functional assay
Chain of CD3 on TCR/CD3效应细胞 (Jurkat-NFAT-CD3) (human) (chain, as listed by the source): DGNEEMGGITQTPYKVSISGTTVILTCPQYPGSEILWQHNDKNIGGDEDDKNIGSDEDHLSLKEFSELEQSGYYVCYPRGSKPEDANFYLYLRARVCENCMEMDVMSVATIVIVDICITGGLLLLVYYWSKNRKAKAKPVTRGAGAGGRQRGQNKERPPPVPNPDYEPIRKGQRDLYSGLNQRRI

[4] = molecular target: T2, 人CD3蛋白 (human); experiment: ELISA, coated human CD3 protein
T2 construct: Bought from ACRO; also called 重组人CD3; human CD3 protein (Fc标签)
T2 sequence (P07766 23-126): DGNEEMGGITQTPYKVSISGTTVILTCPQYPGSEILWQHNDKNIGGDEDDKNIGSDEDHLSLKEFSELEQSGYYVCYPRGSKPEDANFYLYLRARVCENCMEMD

[5] = molecular target: T1, 人GUCY2C蛋白(His标签); experiment: ELISA, coated human GUCY2C protein

Chain of 细胞表面表达的GUCY2C (HT55, SW948, LS174T-GUCY2C, HT1080-GUCY2C细胞) (P25092 24-1073): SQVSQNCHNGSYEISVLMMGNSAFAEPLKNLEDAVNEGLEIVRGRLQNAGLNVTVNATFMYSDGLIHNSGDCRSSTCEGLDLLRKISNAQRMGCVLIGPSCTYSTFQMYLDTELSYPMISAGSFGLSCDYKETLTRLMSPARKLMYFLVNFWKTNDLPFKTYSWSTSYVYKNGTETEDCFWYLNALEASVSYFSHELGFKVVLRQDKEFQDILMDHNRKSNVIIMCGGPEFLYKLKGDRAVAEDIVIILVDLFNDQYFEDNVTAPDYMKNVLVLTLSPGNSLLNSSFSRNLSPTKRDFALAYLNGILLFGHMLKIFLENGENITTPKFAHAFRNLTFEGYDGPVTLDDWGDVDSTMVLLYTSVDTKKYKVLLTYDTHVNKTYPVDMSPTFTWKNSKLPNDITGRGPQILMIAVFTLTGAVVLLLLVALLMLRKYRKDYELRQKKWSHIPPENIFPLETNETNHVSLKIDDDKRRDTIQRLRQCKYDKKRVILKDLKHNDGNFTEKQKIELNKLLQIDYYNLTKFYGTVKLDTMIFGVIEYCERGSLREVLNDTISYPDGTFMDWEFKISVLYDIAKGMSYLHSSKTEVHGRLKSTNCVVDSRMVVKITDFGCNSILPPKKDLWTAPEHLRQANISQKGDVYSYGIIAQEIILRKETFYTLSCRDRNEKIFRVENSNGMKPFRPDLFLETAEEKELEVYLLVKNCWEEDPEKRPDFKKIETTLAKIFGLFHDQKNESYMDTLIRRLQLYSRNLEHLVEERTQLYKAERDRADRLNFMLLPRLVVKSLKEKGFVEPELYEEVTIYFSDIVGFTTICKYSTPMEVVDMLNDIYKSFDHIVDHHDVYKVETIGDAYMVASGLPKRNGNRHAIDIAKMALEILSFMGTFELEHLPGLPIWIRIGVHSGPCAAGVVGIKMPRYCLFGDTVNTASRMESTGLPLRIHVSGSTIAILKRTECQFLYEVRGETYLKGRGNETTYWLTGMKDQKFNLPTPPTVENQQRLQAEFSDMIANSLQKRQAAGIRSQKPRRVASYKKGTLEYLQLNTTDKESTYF

| ADCC reporter: activation of Jurkat-CD16a cells in the presence of HT1080-GUCY2C cells (luciferase), EC50 [1] | EC50 [2] | T cell activation: Jurkat-NFAT-CD3 luciferase reporter with HT55 target cells, EC50 [3] | T cell activation: Jurkat-NFAT-CD3 luciferase reporter with LS174T-GUCY2C target cells, EC50 [3] | T cell activation: Jurkat-NFAT-CD3 luciferase reporter with SW948 target cells, EC50 [3] | T cell activation: Jurkat-NFAT-CD3 luciferase reporter with HT55 target cells, EC50 [1] | T cell activation: Jurkat-NFAT-CD3 luciferase reporter with LS174T-GUCY2C target cells, EC50 [1] | T cell activation: Jurkat-NFAT-CD3 luciferase reporter with SW948 target cells, EC50 [1] | EC50 [4] | EC50 [5] | Binder | killing of HT55 cells with human PBMC (CCK8), EC50 [1] | killing of LS174T-GUCY2C cells with human PBMC (CCK8), EC50 [1] | killing of SW948 cells with human PBMC (CCK8), EC50 [1] |
| --- | --- | --- | --- | --- | --- | --- | --- | --- | --- | --- | --- | --- | --- |
| ~0.0247 µg/mL | 0.193 µg/mL | – | – | – | – | – | – | – | – | GCC-56C9M mAb (antibody, human IgG1, kappa, Chimeric full IgG1: Fab of mouse clone 56C9 fused to human IgG1 Fc; expressed in CHO-S cells; also called 抗GUCY2C mAb; 抗GUCY2C单克隆抗体) heavy: not shown light: QIVLTQSPAIMSVSPGEKVTITCSASSSVSYIHWFQQRPGTSPKLWIYSTSNLASGVPARFSGSGSGTSYSLTISRMEAEDAATYYCQQRSSYPLTFGTGTKLELKRTVAAPSVFIFPPSDEQLKSGTASVVCLLNNFYPREAKVQWKVDNALQSGNSQESVTEQDSKDSTYSLSSTLTLSKADYEKHKVYACEVTHQGLSSPVTKSFNRGEC | – | – | – |
| – | – | ~0.374 µg/mL | ~0.335 µg/mL | ~0.519 µg/mL | ~0.374 µg/mL | ~0.335 µg/mL | ~0.519 µg/mL | 0.116 µg/mL | 0.14 µg/mL | GCC-56C9H4-M6MV1-1 (bispecific antibody, human IgG1, kappa, Heterodimer of a 'light chain' (humanised anti-GUCY2C scFv - linker - anti-CD3 hSP34 VL-CL - mFc7.2) and a 'heavy chain' (anti-CD3 VH-CH1 - mFc7.2); expressed in 293FS or CHO-S cells; also called GUCY2C×CD3 IBiTE) light: EVQLVESGGGLVKPGGSLRLSCAASGFTFSSYAMTWVRQTPEKRLEWVATMSSGGGYTYYLDSVKGRFTISRDNAKNTLYLQMSSLRADDTAVYYCARHNYGYNYAMDYWGQGTLVTVSSGGGGSGGGGSGGGGSEIVLTQSPAIQSVSPGEKVTITCSASSSVSYIHWYQQRPGKAPKLLIYSTSNLASGVPARFSGSGSGTDFSLTISRLQAEDAATYYCQQRSSYPLTFGQGTKLEIKGSGGGGSGGGGSEIVVTQSPATLSVSPGERATLSCRSSTGAVTTSNYANWVQQKPGQAPRGLIGGANKRAPGVPARFSGSLSGDEATLTISSLQSEDFAVYYCALWYSNLWVFGQGTKLEIKRTVAAPSVFIFPPSDEQLKSGTASVVCLLNNFYPREAKVQWKVDNALQSGNSQESVTEQDSKDSTYSLSSTLTLSKADYEKHKVYACEVTHQGLSSPVTKSFNRGECGGSGSCPPCPAPEAAGAPSVFLFPPKPKDTLMISRTPEVTCVVVDVSHEDPEVKFNWYVDGVEVHNAKTKPREEQYNSTYRVVSVLTVLHQDWLNGKEYKCKVSNKALGAPIEKTISKAKGQPREPQVYTLPPSRDELTKNQVSLLCLVKGFYPSDIAVEWESNGQPENNYKTTPPVLDSDGSFFLHSKLTVDKSRWQQGNVFSCSVMHEALHNHYTQKSLSLSPG heavy: EVQLVESGGGLVQPGGSLRLSCAASGFTFNTYAMNWVRQAPGKGLEWVARIRSKYNNYATYYADSVKGRFTISRDDSKNTLYLQMNSLRAEDTAVYYCARHGNFGSSYVSYFAYWGQGTTVTVSSASTKGPSVFPLAPSSKSTSGGTAALGCLVKDYFPEPVTVSWNSGALTSGVHTFPAVLQSSGLYSLSSVVTVPSSSLGTQTYICNVNHKPSNTKVDKKVEPKSCDKTHTCPPCPAPEAAGAPSVFLFPPKPKDTLMISRTPEVTCVVVDVSHEDPEVKFNWYVDGVEVHNAKTKPREEQYNSTYRVVSVLTVLHQDWLNGKEYKCKVSNKALGAPIEKTISKAKGQPREPQVYTLPPSRDELTKNQVSLLCLVKGFYPSDIAVEWESNGQPENNYKTTPPVLDSDGSFFLHSKLTVDKSRWQQGNVFSCSVMHEALHNHYTQKSLSLSPG | 0.0152 µg/mL | 0.00274 µg/mL | 0.012 µg/mL |
